Results taken from US20250000946A1 (WUXI BIOLOGICS IRELAND, published 2025).

T1: Human IL-2Rβ/γ (intermediate affinity IL-2 receptor) (human, UniProt P14784 27-551; P31785 23-369)
T1 construct: whole, on cells; also called IL-2Rβ/γc; IL-2Rβ (CD122) and γ (CD132)
T1 sequence (looked up) 1: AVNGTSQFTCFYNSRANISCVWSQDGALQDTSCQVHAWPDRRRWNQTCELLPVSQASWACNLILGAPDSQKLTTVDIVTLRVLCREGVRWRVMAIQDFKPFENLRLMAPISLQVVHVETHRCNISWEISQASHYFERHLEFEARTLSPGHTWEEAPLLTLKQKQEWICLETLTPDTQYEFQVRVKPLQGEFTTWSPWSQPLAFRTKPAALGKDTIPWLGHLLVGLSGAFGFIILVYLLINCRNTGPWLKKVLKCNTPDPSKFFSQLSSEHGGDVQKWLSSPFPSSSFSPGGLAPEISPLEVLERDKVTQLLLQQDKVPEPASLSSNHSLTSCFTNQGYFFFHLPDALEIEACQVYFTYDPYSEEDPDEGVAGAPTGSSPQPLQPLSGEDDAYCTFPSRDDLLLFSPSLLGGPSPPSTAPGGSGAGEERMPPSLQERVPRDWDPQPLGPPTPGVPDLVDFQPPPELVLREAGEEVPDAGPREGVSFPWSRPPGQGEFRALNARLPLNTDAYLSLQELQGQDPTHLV
T1 sequence (looked up) 2: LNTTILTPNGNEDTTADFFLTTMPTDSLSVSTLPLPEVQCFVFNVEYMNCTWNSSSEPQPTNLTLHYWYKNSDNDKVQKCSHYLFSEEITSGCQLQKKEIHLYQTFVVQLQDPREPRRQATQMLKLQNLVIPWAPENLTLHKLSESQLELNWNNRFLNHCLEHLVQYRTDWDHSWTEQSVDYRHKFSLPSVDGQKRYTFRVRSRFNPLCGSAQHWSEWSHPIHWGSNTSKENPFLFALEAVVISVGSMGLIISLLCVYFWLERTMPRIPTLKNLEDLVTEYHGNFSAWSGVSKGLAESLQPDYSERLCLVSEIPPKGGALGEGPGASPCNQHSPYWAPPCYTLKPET

T2: Human IL-2Rα/β/γ complex (high affinity IL-2 receptor) (human, UniProt P01589 22-272; P14784 27-551; P31785 23-369)
T2 sequence (looked up) 1: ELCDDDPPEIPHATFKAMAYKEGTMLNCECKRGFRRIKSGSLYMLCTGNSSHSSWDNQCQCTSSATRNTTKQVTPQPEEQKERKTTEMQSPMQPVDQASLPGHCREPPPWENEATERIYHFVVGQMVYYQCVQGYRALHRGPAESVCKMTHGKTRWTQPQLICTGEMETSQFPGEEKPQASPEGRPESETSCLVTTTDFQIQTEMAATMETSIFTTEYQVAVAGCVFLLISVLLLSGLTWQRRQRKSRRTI
T2 sequence (looked up) 2: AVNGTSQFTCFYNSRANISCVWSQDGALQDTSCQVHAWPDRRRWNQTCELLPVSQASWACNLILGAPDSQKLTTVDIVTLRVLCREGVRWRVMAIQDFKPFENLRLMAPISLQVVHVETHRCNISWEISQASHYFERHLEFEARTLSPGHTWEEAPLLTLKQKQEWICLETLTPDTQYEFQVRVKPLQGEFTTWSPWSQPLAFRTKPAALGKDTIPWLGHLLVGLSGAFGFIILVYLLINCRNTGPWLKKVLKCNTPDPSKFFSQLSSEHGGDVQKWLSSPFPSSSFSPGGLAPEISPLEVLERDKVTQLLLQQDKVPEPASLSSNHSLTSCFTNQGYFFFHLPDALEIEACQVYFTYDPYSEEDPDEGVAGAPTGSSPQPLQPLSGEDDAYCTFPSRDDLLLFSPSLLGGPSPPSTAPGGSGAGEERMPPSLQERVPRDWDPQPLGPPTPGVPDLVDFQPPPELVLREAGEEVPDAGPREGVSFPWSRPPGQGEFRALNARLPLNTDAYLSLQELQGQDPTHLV
T2 sequence (looked up) 3: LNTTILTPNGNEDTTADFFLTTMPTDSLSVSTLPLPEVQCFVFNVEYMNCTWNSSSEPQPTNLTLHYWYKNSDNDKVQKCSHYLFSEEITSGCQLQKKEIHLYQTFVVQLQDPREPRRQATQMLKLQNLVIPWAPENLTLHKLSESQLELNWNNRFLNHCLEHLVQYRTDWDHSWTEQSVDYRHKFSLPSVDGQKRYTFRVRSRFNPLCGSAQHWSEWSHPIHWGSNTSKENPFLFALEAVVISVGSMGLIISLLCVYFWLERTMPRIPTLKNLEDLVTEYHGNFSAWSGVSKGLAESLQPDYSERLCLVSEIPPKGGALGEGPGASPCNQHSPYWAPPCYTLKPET


Legend:
[1] = molecular target: T1, Human IL-2Rβ/γ (intermediate affinity …); assay: FACS, HH cells; EC50 fold vs T2U0.E44-1
Method: (§1) Human cutaneous T cell lymphoma HH cells, malignant non-Hodgkin's lymphoma NK92 cells and cutaneous T cell lymphoma MJ20 cells were used for binding assay. They both constitutively express IL-2Rβ (CD122) and […] (CD132), and NK92 and MJ20 also expresses IL-2Rα (CD25). HH, NK92 and MJ20 cells were cultured following ATCC guidance, then transferred to a 96-plate for binding analysis. Cells were incubated with IL-2/Fc fusion proteins at the indicated concentrations for 30 min at 4° C. to avoid internalization. Binding was detected by 2nd antibody of PE-anti-human Fc at 4° C. for another 30 min. The median fluorescence intensity (MFI) on HH and NK92 cells was measured using FACS.

[2] = molecular target: T1, Human IL-2Rβ/γ (intermediate affinity …); assay: cell-based or functional assay
[3] = molecular target: T1, Human IL-2Rβ/γ (intermediate affinity …); assay: FACS, HH cells
Method: as §1

[4] = molecular target: T2, Human IL-2Rα/β/γ complex (high affinity …); assay: cell-based or functional assay
[5] = molecular target: T1, Human IL-2Rβ/γ (intermediate affinity …); assay: cell-based or functional assay; remark: listed apart in the source
[6] = molecular target: T2, Human IL-2Rα/β/γ complex (high affinity …); assay: FACS, NK92 cells
Method: as §1

[7] = molecular target: T2, Human IL-2Rα/β/γ complex (high affinity …); assay: FACS, NK92 cells; EC50 fold vs T2U0.E44-1
Method: as §1

| Binder | Affinity reduction [1] [fold] | Human CD8+ T Potency EC50 (STAT5 phosphorylation) [2] [nM] | Human CD8+ T Potency reduction [2] [fold] | EC50 [3] [nM] | Potency in human Treg EC50 [4] [nM] | Potency reduction (Treg) [4] [fold] | Potency in human CD8+ T EC50 [5] [nM] | Potency reduction (CD8+ T) [5] [fold] | EC50 [6] [nM] | Affinity reduction [7] [fold] |
| --- | --- | --- | --- | --- | --- | --- | --- | --- | --- | --- |
| W3XX115-T2U0.E44-31.uIgG4V322 (Fc fusion) APTSSSTKKTQLQLEHLLLDLQMILNGINNYKNPKLTRMLTVKFYMPKKATELKHLQCLEEELKPLEEVLNLAQSKNFHLRPRDLISNINVIVLELKGSETTFMCEYADETATIVEFLNRWITFCQSILESKYGPPCPPCPAPEAAGGPSVFLFPPKPKDTLMISRTPEVTCVVVDVSQEDPEVQFNWYVDGVEVHNAKTKPREEQFNSTYRVVSVLTVLHQDWLNGKEYKCKVSNKGLPSSIEKTISKAKGQPREPQVYTLPPCQEEMTKNQVSLWCLVKGFYPSDIAVEWESNGQPENNYKTTPPVLDSDGSFFLYSRLTVDKSRWQEGNVFSCSVMHEALHNHYTQKSLSLSLG heavy: EIQLQQSGPELVKPGASVKVSCKASGYSFTDYNMYWVKQSHGESLEWIGYIDPYNGGTRYNQKFKGKATLTVDKSSSTAFMHLNSLTSEDSAVYYCARNGHWDGAWFAYWGQGTLVTVSAASTKGPSVFPLAPCSRSTSESTAALGCLVKDYFPEPVTVSWNSGALTSGVHTFPAVLQSSGLYSLSSVVTVPSSSLGTKTYTCNVDHKPSNTKVDKRVESKYGPPCPPCPAPEAAGGPSVFLFPPKPKDTLMISRTPEVTCVVVDVSQEDPEVQFNWYVDGVEVHNAKTKPREEQFNSTYRVVSVLTVLHQDWLNGKEYKCKVSNKGLPSSIEKTISKAKGQPREPQVCTLPPSQEEMTKNQVSLSCAVKGFYPSDIAVEWESNGQPENNYKTTPPVLDSDGSFFLVSRLTVDKSRWQEGNVFSCSVMHEALHNHYTQKSLSLSLG light: DIQMNQSPSSLSASLGDTITITCHASQNINVWLSWYQQKPGNIPKLLIYKASNLHTGVPSRFSGSRSGTGFTLTISSLQPEDIATYYCHQGQSYPFTFGSGTKLEIKRTVAAPSVFIFPPSDEQLKSGTASVVCLLNNFYPREAKVQWKVDNALQSGNSQESVTEQDSKDSTYSLSSTLTLSKADYEKHKVYACEVTHQGLSSPVTKSFNRGEC | 15.8 | 365 | 100 | 800 | – | – | – | – | – | – |
| W3XX115-T2U0.E44-7.uIgG4V1 (Fc fusion, IL-2 with C-terminal 5 aa (ISTLT) deleted; E44 format, IgG4) APTSSSTKKTQLQLEHLLLDLQMILNGINNYKNPKLTRMLTFKFYMPKKATELKHLQCLEEELKPLEEVLNLAQSKNFHLRPRDLISNINVIVLELKGSETTFMCEYADETATIVEFLNRWITFCQSIESKYGPPCPPCPAPEFLGGPSVFLFPPKPKDTLMISRTPEVTCVVVDVSQEDPEVQFNWYVDGVEVHNAKTKPREEQFNSTYRVVSVLTVLHQDWLNGKEYKCKVSNKGLPSSIEKTISKAKGQPREPQVYTLPPCQEEMTKNQVSLWCLVKGFYPSDIAVEWESNGQPENNYKTTPPVLDSDGSFFLYSRLTVDKSRWQEGNVFSCSVMHEALHNHYTQKSLSLSLG heavy: EIQLQQSGPELVKPGASVKVSCKASGYSFTDYNMYWVKQSHGESLEWIGYIDPYNGGTRYNQKFKGKATLTVDKSSSTAFMHLNSLTSEDSAVYYCARNGHWDGAWFAYWGQGTLVTVSAASTKGPSVFPLAPCSRSTSESTAALGCLVKDYFPEPVTVSWNSGALTSGVHTFPAVLQSSGLYSLSSVVTVPSSSLGTKTYTCNVDHKPSNTKVDKRVESKYGPPCPPCPAPEFLGGPSVFLFPPKPKDTLMISRTPEVTCVVVDVSQEDPEVQFNWYVDGVEVHNAKTKPREEQFNSTYRVVSVLTVLHQDWLNGKEYKCKVSNKGLPSSIEKTISKAKGQPREPQVCTLPPSQEEMTKNQVSLSCAVKGFYPSDIAVEWESNGQPENNYKTTPPVLDSDGSFFLVSRLTVDKSRWQEGNVFSCSVMHEALHNHYTQKSLSLSLG light: DIQMNQSPSSLSASLGDTITITCHASQNINVWLSWYQQKPGNIPKLLIYKASNLHTGVPSRFSGSRSGTGFTLTISSLQPEDIATYYCHQGQSYPFTFGSGTKLEIKRTVAAPSVFIFPPSDEQLKSGTASVVCLLNNFYPREAKVQWKVDNALQSGNSQESVTEQDSKDSTYSLSSTLTLSKADYEKHKVYACEVTHQGLSSPVTKSFNRGEC | – | – | – | – | 36.4 | 1400 | 5110 | 535 | ~515 | 94 |
| W3XX115-T2U0.E44-32.uIgG4V322 (Fc fusion) APTSSSTKKTQLQLEHLLLDLQMILNGINNYKNPKLTRMLTIKFYMPKKATELKHLQCLEEELKPLEEVLNLAQSKNFHLRPRDLISNINVIVLELKGSETTFMCEYADETATIVEFLNRWITFCQSILESKYGPPCPPCPAPEAAGGPSVFLFPPKPKDTLMISRTPEVTCVVVDVSQEDPEVQFNWYVDGVEVHNAKTKPREEQFNSTYRVVSVLTVLHQDWLNGKEYKCKVSNKGLPSSIEKTISKAKGQPREPQVYTLPPCQEEMTKNQVSLWCLVKGFYPSDIAVEWESNGQPENNYKTTPPVLDSDGSFFLYSRLTVDKSRWQEGNVFSCSVMHEALHNHYTQKSLSLSLG heavy: EIQLQQSGPELVKPGASVKVSCKASGYSFTDYNMYWVKQSHGESLEWIGYIDPYNGGTRYNQKFKGKATLTVDKSSSTAFMHLNSLTSEDSAVYYCARNGHWDGAWFAYWGQGTLVTVSAASTKGPSVFPLAPCSRSTSESTAALGCLVKDYFPEPVTVSWNSGALTSGVHTFPAVLQSSGLYSLSSVVTVPSSSLGTKTYTCNVDHKPSNTKVDKRVESKYGPPCPPCPAPEAAGGPSVFLFPPKPKDTLMISRTPEVTCVVVDVSQEDPEVQFNWYVDGVEVHNAKTKPREEQFNSTYRVVSVLTVLHQDWLNGKEYKCKVSNKGLPSSIEKTISKAKGQPREPQVCTLPPSQEEMTKNQVSLSCAVKGFYPSDIAVEWESNGQPENNYKTTPPVLDSDGSFFLVSRLTVDKSRWQEGNVFSCSVMHEALHNHYTQKSLSLSLG light: DIQMNQSPSSLSASLGDTITITCHASQNINVWLSWYQQKPGNIPKLLIYKASNLHTGVPSRFSGSRSGTGFTLTISSLQPEDIATYYCHQGQSYPFTFGSGTKLEIKRTVAAPSVFIFPPSDEQLKSGTASVVCLLNNFYPREAKVQWKVDNALQSGNSQESVTEQDSKDSTYSLSSTLTLSKADYEKHKVYACEVTHQGLSSPVTKSFNRGEC | 17.9 | 379 | 104 | 904 | – | – | – | – | – | – |
